Assay results: patent publication US20200199214A1 (Hoffmann-La Roche, published 2020)

Assays:
[1] = molecular target: T1, human VEGF121 (human, UniProt P15692-9 27-147); experiment: competition ELISA: Fab preincubated with VEGF121, free VEGF121 bound to coated rhVEGFR-1-Fc detected; sheet title 'Competition ELISA VEGFR1-Fc, 8 pM VEGF121'
T1 construct: No tag is stated for these preparations; Kept apart from VEGF121-His; also called HuVEGF121
T1 sequence (looked up): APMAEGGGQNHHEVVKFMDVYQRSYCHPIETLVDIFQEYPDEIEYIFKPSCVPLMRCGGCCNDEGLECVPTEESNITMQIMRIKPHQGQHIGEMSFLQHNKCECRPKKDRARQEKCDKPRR
Protocol: (§1) 96-well-Plates (Maxisorp Nunc-Immoplates) were coated with 50 μL/well rhVEGFR-1-Fc (R&D #321-FL-050) at a final concentration of 1 μg/ml in 200 mM NaHC0₃, pH 9.4 for 1 hour at room temperature.
(§2) Meanwhile, antibody Fab fragments of different concentrations were preincubated with VEGF for form an antibody Fab-VEGF premix as follows: A dilution series of antibody Fab fragment was prepared by adding 280 μl of a solution of antibody Fab fragments (409.6 nM antibody in PBST-1% BSA) into the wells of the first column of a round bottom 96-well PS plate. The individual wells of columns 2-12 of the same plate were filled with 140 μl PBST-1% BSA. Subsequently, 1:2 dilutions were performed by transferring 140 μl of the antibody solution into the next column, thorough mixing and proceed with transferring 140 μl of this diluted antibody solution to the next column. This is repeated until column 11. Excess of 140 μl were discarded so that all wells comprise 140 μl. Column 12 served as the control (blank). […] 50 μl of the dilution series of the respective antibody Fab fragment were added to the VEGF121, or VEGF165, respectively; mixed thoroughly and incubated for 1.5 hours at room temperature.
(§3) The rhVEGFR-1-Fc coated plates were washed two times with PBST and blocked for 45 min with 200 μl of 2% MPBST. After washing off the MPBST solution twice with PBST, 50 μl of the antibody Fab-VEGF premix were added to the plate and incubated for 1.5 hours at room temperature. Subsequently, the plates were washed twice with PBST. Then, 50 μl of a solution comprising biotinylated anti-VEGF antibody (R&D, BAF293; 1:2000 dilution in PBST) and SA-HRP (KPL, 14-30-00; 1:2000 dilution in PBST) was added and incubated for 30 min at room temperature. After 6× washing with PBST, 50 μl of TMB substrate solution (two-component HRP substrate (KPL, 34021); used at room temperature) was added and incubated for 30 min at room temperature. 50 μl of 1N H₂SO₄ was added and absorbance was read at 450 nm.

[2] = molecular target: T2, VEGF165 (UniProt P15692-4 27-191); experiment: competition ELISA: Fab preincubated with VEGF165, free VEGF165 bound to coated rhVEGFR-1-Fc detected; sheet title 'Competition ELISA VEGFR1-Fc, 8 pM VEGF165'
T2 construct: also called VEGF165 (Humanzyme, HZ-1153)
Protocol: as §1, §2, §3

[3] = molecular target: T1, human VEGF121; experiment: SPR competition: Fab (from 200 nM, 1:2 dilutions) preincubated with 50 nM VEGF121, injected over immobilised hVEGFR2 (competitor); without IL-1beta
Protocol: (§4) As running and dilution buffer, HBS-P+(10 mM HEPES, 150 mM NaCl pH 7.4, 0.05% Surfactant P20) was used.
(§5) For assessing VEGF-receptor binding inhibition, a final concentration of 200 nM of R07200394 or 400 nM antibody 0032 was preincubated with 50 nM VEGF121. For assessing IL-1beta-receptor binding inhibition, a final concentration of 200 nM of R07200394 or 200 nM antibody 0032 was with preincubated with 50 nM IL-1beta. Samples were diluted (1:2) in the corresponding 50 nM VEGF121 or IL-1beta solution.
(§6) The antibody/ligand mixtures were injected onto the VEGFR2 or IL-1R1 surface for 60 s at a flow rate of 5 μl/min. After a dissociation phase for 60 s, the VEGFR2 surface was regenerated by injecting 5 mM NaOH for 60 s, whereas the IL-1R1 surface was regenerated by injecting 10 mM Glycine pH 3.0 followed by 5 mM NaOH for 60 s each. Bulk refractive index differences were corrected by subtracting blank injections and by subtracting the response obtained from the blank control flow cell. For evaluation, the binding response 5 seconds after inject end was taken. The derived response in RU was transformed to a binding response relative to the initial signal corresponding to the ligand(s) without antibody. IC50 values were calculated using a 4 parameter logistic model (XLfit, ID Business Solutions Ltd.)

[4] = molecular target: T1, human VEGF121; experiment: SPR competition: Fab preincubated with 50 nM VEGF121, injected over immobilised hVEGFR2 (competitor); in presence of IL-1beta
Protocol: as §4, §5, §6

[5] = molecular target: T3, human IL-1 beta (PeproTech 200-01B) (human, UniProt P01584 117-269); experiment: SPR, Fab captured via anti-Fab antibody, human IL-1beta injected, 1:1 Langmuir fit
T3 construct: As printed it covers only the N-terminal part of the precursor, so it was not used; also called huIL-1 beta; IL1β
Protocol: An anti-Fab capturing antibody (GE Healthcare 28958325) was immobilized to a Series S Sensor Chip C1 (GE Healthcare 29104990) using standard amine coupling chemistry resulting in a surface density of approximately 500 resonance units (RU). The bispecific anti-VEGF/anti-IL-1beta Fab fragment was captured to the surface with resulting capture levels of approximately 20 RU. A dilution series ranging from 0.74 to 60 nM (1:3 dilution) of either human IL-1 beta (PeproTech 200-01B) or cynomolgus IL-1 beta (Sino Biological 90010-CNAE) was injected for 90 s, dissociation was monitored for at least 600 s at a flow rate of 30 μl/min. The surface was regenerated by two consecutive injections of 10 mM Glycine pH 2.1 for 60 s each. Bulk refractive index differences were corrected by subtracting blank injections and by subtracting the response obtained from the control flow cell without captured bispecific anti-VEGF/anti-IL-1beta Fab fragment. Curve fitting was performed using the 1:1 Langmuir binding model within the Biacore evaluation software.
Binding kinetics to VEGF and IL-1beta for the candidate antibodies were assessed as described in Example 3 using the indicated bispecific anti-VEGF/anti-IL-1beta Fab fragments (amino acid sequence as illustrated in Table 3). For comparison, antigen binding kinetics of prior art anti-VEGF/anti-IL-1beta antibody 0032, a full length IgG antibody, as disclosed in WO2016/075034 are depicted.

IC50 (read off the curve) [1]: ~40 pM | IC50 (read off the curve) [2]: ~90 pM | IC50 [3]: 44000 pM | IC50 [4]: 39000 pM | Kd [5]: 21 pM | koff [5]: 0.000102 s⁻¹ | kon [5]: 4.73e+06 M⁻¹ s⁻¹ | t 1/2 [5]: 1.9 h
B1: bispecific anti-VEGF/anti-IL-1beta Fab fragment RO7200394 (Fab, V domains shown)
VH: DEQLVESGGGLVKPGGSLRLSCAAEGMVFKWNDMSWVRQAPGKGLEWVGSISKKGDHKYLNTKFIGRFTISRDNEKDTLYLQMNSLRAEDTAVYYCAKDVGFFDIWGQGTLVTVSS
VL: AIYMHQEPSSLSASVGDRVTITCHGSYWLSSLVAWYQQKPGKAPKLLIYDAKYKHLGVPSRFSGSKEDQEFTLTISSLQPEDFATYYCQQYRYHPYTFGHGTKVEIKR
notes: same variable domains as 1HVL12.85; also called R07200394
